Columns and labels:
purified protein [1] = substrate: CC(=O)N[C@@H]1[C@@H](O[C@H](C)C(=O)O)[C@H](O)[C@@H](CO)O[C@H]1O; assay: purified protein; parameters: species or system Tannerella forsythia; details: active site, MurNAc-binding site; hydrogen bonds to G67, D95, N119, D141; lactyl ether at S133, P134, L135
purified protein [2] = substrate: CC(=O)N[C@@H]1[C@@H](O[C@H](C)C(=O)O)[C@H](O)[C@@H](CO)O[C@H]1O; assay: purified protein; format: binding, Tannerella forsythia; details: active site, very similar to MurK MurNAc site; T69, R132, A133 differ

B1: MurK (murein sugar kinase) (Tannerella forsythia 92A2) (protein)
chain: MILIADSGSTKTHWNVLDRGQVVGEIFTKGMNPFFQTPEEMGREIERTLLPQLNSNRFCEVHFFGAGCIPEKVPIVRNVLKGCLDVSSLIEVDTDMLAAAKASCGRSPGIVCIMGTGSNSCFYDGEKITANVSPLGFILGDEGSGAVLGKLLIGDLLKNQMGEELKEKFLRQYELTPANIIERVYRQPFPNRFLAGISPFLAENIEHPAIHSLVLNAFKSFLTRNVMQFDYTRYKAHFIGSVAYYYKDILEEAAAATGIRTGTIVRNPMEGLRTYYSTVAETV
notes: recombinant His6-tagged protein expressed in E. coli
Km (purified protein [1]): 180 ± 40 µM | kcat (purified protein [1]): 42 ± 4.2 s⁻¹ | kcat/Km (purified protein [1]): 230000 ± 56000 M⁻¹ s⁻¹

B2: K1058 (Tannerella forsythia 92A2) (protein)
chain: MKLIAESGSTKTEWSLVEGEHLIQRVFTEGLNPFFQTRREISRSIRLGLPDSFFKRKLEQVFFYGAGCTSAEKKSVVEASLVAQFKTPAYVESDLLAAARGLFQHDSGIACILGTGSNSCFYDGHVIVKNVRAGGYILGDEGSGAALGKQFLSDVLKKLAPQVLIDDFFEKYDLTPHDVMDVVYNRPFPNRFLAEQSCFLADYLRLDYVKGLLLSNLRSFFLRNVMQYDYLNYPIRFVGSVAYNYADLLHQVGKEFGVELSVVEETPMGGLIKYHAFPPDDPES
notes: as for B1
Km (purified protein [2]): 28 ± 10 µM | kcat (purified protein [2]): 0.18 ± 0.01 s⁻¹ | kcat/Km (purified protein [2]): 6400 ± 2900 M⁻¹ s⁻¹
